According to patent US20180155451A1 (published 2018):

Experiments:
FcγRIIa R [1] = target: T1, FcγRIIa R (human, UniProt P12318 34-217); experiment: SPR Biacore; vs GpH7-B3/GpL16-k0 =100
T1 construct: extracellular domain; also called FcgRIIa R type; 2aR
T1 sequence (looked up): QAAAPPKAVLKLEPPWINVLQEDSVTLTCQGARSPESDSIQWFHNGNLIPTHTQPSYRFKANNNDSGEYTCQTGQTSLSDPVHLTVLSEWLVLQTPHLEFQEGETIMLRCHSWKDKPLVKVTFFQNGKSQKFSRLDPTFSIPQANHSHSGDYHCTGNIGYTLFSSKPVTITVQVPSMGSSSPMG
Protocol: Analysis of interaction between objective antibody and the FcγR was carried out using Biacore T100 (GE Healthcare). HBS-EP+ (GE Healthcare) was used as the running buffer, and the measurement temperature was set to 25° C. Chips produced by immobilizing the antigen peptide by the amine coupling method to a Series S Sencor Chip CM5 (GE Healthcare), or alternatively, chips produced by allowing preliminarily biotinylated antigen peptides to interact with and immobilize onto a Series S Sensor Chip SA (certified) (GE Healthcare) were used. Antibodies of interest were captured onto an antigen peptide-immobilized chip, and allowed to interact to each FcγR diluted with running buffer. To regenerate and repeatedly use the chip, the antibodies captured on the chip were washed off by reacting 10 mM glycine-HCl, pH 1.5.
The FcγR-binding activity of each antibody was assessed primarily using as an indicator the FcγR-binding activity and dissociation constant for FcγR.

FcγRIIa R [2] = target: T1, FcγRIIa R; experiment: SPR Biacore; vs GpH7-A5/GpH7-B3/GpL16-k0 =100

B1: GpH7-B3 variant A330_01G/GpL16-k0 (antibody, human IgG1, kappa)
heavy: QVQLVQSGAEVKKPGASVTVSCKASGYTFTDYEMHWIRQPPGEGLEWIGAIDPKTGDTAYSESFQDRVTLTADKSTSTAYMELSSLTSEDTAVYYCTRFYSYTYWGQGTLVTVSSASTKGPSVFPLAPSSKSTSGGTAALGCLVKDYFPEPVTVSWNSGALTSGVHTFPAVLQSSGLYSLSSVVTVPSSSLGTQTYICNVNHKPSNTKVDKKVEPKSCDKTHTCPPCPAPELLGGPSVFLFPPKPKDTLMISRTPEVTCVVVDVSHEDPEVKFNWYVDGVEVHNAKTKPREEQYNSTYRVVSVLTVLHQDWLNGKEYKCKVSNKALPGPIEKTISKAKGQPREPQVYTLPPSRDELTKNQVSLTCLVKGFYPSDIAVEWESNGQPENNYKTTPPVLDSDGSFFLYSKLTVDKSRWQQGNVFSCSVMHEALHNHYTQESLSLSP
light: DIVMTQSPLSLPVTPGEPASISCQASESLVHSNRNTYLHWYLQKPGQSPQLLIYKVSNRFSGVPDRFSGSGSGTDFTLKISRVEAEDVGVYYCSQNTHVPPTFGQGTKVEIERTVAAPSVFIFPPSDEQLKSGTASVVCLLNNFYPREAKVQWKVDNALQSGNSQESVTEQDSKDSTYSLSSTLTLSKADYEKHKVYACEVTHQGLSSPVTKSFNRGEC
notes: also called Ho Ab A330_01G
Q: Which Ho/Con_2aR (FcγRIIa R [1]) does the source give for B1 here?
A: 106 % of control

B2: GpH7-A5/GpH7-B3 variant N325_15Y/GpL16-k0 (antibody, human IgG1, kappa)
heavy 1: not shown
heavy 2: not shown
light: B1 light
notes: also called He Ab N325_15Y
Q: B2 was tested. Which He/Con_2aR (FcγRIIa R [2]) did it give?
A: 101 % of control

B3: GpH7-B3 variant G237_20W/GpL16-k0 (antibody, human IgG1, kappa)
heavy: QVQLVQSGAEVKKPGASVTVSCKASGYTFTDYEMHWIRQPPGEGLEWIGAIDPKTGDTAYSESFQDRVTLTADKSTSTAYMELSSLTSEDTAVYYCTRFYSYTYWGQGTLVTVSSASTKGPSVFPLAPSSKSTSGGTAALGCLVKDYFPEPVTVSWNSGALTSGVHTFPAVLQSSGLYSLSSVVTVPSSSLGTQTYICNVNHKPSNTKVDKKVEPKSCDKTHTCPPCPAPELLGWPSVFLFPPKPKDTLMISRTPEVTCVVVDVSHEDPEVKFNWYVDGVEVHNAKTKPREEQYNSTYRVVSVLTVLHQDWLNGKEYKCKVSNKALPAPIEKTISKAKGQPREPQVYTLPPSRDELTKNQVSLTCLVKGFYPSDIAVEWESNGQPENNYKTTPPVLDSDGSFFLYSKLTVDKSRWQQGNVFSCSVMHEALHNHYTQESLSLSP
light: B1 light
notes: also called Ho Ab G237_20W
Q: How did the Ho/Con_2aR (FcγRIIa R [1]) turn out when B3 was run?
A: 107 % of control

B4: GpH7-A5/GpH7-B3 variant P271_08L/GpL16-k0 (antibody, human IgG1, kappa)
heavy 1: not shown
heavy 2: not shown
light: B1 light
notes: also called He Ab P271_08L
Q: B4 was tested. Which He/Con_2aR (FcγRIIa R [2]) did it give?
A: 104 % of control

B5: GpH7-A5/GpH7-B3 variant P238_03V/GpL16-k0 (antibody, human IgG1, kappa)
heavy 1: not shown
heavy 2: not shown
light: B1 light
notes: also called He Ab P238_03V
Q: With B5 as the binder, how does the He/Con_2aR (FcγRIIa R [2]) read?
A: 120 % of control

B6: GpH7-A5/GpH7-B3 variant L328_10E/GpL16-k0 (antibody, human IgG1, kappa)
heavy 1: not shown
heavy 2: not shown
light: B1 light
notes: also called He Ab L328_10E
Q: Which He/Con_2aR (FcγRIIa R [2]) does the source give for B6 here?
A: 105 % of control

B7: GpH7-B3 variant G237_10E/GpL16-k0 (antibody, human IgG1, kappa)
heavy: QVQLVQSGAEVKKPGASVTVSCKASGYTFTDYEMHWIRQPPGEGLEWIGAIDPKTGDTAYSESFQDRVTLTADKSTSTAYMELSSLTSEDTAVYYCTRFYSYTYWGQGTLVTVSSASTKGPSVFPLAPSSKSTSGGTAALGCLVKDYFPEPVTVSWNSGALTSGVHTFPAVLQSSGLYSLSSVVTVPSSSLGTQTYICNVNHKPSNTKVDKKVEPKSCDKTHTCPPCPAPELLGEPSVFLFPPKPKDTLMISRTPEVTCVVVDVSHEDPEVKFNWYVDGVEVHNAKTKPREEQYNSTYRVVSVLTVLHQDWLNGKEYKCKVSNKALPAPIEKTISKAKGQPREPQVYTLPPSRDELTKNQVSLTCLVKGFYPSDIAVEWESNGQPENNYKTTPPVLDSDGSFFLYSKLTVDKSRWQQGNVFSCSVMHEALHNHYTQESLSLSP
light: B1 light
notes: also called Ho Ab G237_10E
Q: B7 was tested. Which Ho/Con_2aR (FcγRIIa R [1]) did it give?
A: 22.5 % of control

B8: GpH7-B3 variant G237_04F/GpL16-k0 (antibody, human IgG1, kappa)
heavy: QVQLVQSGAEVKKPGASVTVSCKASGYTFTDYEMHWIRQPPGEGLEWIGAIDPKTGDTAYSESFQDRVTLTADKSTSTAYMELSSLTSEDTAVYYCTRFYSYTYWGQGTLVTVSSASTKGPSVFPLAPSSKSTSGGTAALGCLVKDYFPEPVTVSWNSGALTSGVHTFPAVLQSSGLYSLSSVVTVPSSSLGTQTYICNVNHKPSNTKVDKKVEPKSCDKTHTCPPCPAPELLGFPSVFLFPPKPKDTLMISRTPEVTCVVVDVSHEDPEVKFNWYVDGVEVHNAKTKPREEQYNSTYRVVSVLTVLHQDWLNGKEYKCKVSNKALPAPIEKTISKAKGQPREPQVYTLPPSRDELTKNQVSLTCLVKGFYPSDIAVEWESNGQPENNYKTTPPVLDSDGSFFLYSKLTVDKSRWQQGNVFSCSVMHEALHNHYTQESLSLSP
light: B1 light
notes: also called Ho Ab G237_04F
Q: B8 was tested. Which Ho/Con_2aR (FcγRIIa R [1]) did it give?
A: 113 % of control

B9: GpH7-B3 variant E333_07I/GpL16-k0 (antibody, human IgG1, kappa)
heavy: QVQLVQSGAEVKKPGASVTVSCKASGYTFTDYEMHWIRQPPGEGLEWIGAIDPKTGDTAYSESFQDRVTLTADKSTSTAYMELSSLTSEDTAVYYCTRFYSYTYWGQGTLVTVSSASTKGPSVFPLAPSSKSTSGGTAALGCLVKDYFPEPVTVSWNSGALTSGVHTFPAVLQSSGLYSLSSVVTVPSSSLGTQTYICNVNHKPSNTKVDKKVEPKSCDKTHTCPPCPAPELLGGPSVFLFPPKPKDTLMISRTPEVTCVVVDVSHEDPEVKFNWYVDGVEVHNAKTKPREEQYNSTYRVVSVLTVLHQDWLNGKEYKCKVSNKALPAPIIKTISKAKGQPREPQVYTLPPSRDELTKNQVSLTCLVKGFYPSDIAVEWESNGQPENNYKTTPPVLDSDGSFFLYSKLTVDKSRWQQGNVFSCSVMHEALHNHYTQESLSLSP
light: B1 light
notes: also called Ho Ab E333_07I
Q: With B9 as the binder, how does the Ho/Con_2aR (FcγRIIa R [1]) read?
A: 98.3 % of control

B10: GpH7-B3 variant A330_05P/GpL16-k0 (antibody, human IgG1, kappa)
heavy: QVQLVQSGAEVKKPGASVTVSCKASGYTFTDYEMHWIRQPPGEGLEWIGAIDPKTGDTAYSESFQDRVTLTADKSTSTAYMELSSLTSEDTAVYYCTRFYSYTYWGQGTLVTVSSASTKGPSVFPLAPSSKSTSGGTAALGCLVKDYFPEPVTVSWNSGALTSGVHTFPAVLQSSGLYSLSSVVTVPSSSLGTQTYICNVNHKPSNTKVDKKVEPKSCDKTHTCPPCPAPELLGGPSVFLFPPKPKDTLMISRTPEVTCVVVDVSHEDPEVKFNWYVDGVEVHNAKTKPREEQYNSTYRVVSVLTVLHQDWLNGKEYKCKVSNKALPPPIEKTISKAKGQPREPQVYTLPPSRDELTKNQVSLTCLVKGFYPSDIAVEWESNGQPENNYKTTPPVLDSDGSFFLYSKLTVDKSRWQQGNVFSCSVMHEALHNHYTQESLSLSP
light: B1 light
notes: also called Ho Ab A330_05P
Q: B10 was tested. Which Ho/Con_2aR (FcγRIIa R [1]) did it give?
A: 36.2 % of control

B11: GpH7-A5/GpH7-B3 variant N325_04F/GpL16-k0 (antibody, human IgG1, kappa)
heavy 1: not shown
heavy 2: not shown
light: B1 light
notes: also called He Ab N325_04F
Q: Which He/Con_2aR (FcγRIIa R [2]) does the source give for B11 here?
A: 120 % of control

B12: GpH7-B3 variant A327_09D/GpL16-k0 (antibody, human IgG1, kappa)
heavy: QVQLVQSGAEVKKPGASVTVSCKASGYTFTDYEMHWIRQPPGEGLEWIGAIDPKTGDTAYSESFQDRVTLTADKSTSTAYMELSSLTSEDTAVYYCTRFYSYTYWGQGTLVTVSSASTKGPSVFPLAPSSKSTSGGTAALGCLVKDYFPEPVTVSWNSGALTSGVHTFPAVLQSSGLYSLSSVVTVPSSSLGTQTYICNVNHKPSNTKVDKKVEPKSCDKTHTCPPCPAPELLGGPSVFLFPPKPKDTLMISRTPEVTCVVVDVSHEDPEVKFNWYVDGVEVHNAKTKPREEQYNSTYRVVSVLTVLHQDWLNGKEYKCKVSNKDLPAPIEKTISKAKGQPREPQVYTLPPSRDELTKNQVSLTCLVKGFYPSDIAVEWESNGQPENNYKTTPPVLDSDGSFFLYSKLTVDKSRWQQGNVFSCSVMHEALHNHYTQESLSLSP
light: B1 light
notes: also called Ho Ab A327_09D
Q: With B12 as the binder, how does the Ho/Con_2aR (FcγRIIa R [1]) read?
A: 120 % of control

B13: GpH7-A5/GpH7-B3 variant P331_15Y/GpL16-k0 (antibody, human IgG1, kappa)
heavy 1: not shown
heavy 2: not shown
light: B1 light
notes: also called He Ab P331_15Y
Q: With B13 as the binder, how does the He/Con_2aR (FcγRIIa R [2]) read?
A: 112 % of control

B14: GpH7-B3 variant E269_09D/GpL16-k0 (antibody, human IgG1, kappa)
heavy: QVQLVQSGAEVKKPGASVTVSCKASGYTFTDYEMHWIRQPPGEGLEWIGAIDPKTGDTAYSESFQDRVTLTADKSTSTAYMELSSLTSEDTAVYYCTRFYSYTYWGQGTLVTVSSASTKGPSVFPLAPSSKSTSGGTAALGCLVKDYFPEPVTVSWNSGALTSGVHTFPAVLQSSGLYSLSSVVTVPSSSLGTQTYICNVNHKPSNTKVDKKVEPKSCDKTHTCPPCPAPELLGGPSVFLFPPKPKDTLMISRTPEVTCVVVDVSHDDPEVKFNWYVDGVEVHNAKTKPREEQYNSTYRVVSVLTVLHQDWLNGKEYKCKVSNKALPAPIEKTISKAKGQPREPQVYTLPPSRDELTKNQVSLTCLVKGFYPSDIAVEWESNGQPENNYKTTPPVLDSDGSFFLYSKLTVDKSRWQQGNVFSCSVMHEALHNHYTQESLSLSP
light: B1 light
notes: also called Ho Ab E269_09D
Q: For B14, which Ho/Con_2aR (FcγRIIa R [1]) is on record?
A: 103 % of control

B15: GpH7-B3 variant E333_09D/GpL16-k0 (antibody, human IgG1, kappa)
heavy: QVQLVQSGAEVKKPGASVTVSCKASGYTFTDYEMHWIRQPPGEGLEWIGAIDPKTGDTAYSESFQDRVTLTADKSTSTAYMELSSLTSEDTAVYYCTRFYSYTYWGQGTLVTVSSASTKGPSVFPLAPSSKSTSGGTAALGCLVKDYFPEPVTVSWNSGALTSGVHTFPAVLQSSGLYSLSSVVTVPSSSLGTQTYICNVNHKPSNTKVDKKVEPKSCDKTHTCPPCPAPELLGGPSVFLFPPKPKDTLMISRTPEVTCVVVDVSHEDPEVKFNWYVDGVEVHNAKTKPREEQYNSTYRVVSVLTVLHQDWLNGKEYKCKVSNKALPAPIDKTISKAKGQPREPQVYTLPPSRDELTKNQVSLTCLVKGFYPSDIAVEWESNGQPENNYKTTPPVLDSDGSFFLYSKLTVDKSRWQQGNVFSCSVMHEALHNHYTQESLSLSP
light: B1 light
notes: also called Ho Ab E333_09D
Q: How did the Ho/Con_2aR (FcγRIIa R [1]) turn out when B15 was run?
A: 96.5 % of control

B16: GpH7-A5/GpH7-B3 variant P331_04F/GpL16-k0 (antibody, human IgG1, kappa)
heavy 1: not shown
heavy 2: not shown
light: B1 light
notes: also called He Ab P331_04F
Q: B16 was tested. Which He/Con_2aR (FcγRIIa R [2]) did it give?
A: 111 % of control

B17: GpH7-A5/GpH7-B3 variant P331_02A/GpL16-k0 (antibody, human IgG1, kappa)
heavy 1: not shown
heavy 2: not shown
light: B1 light
notes: also called He Ab P331_02A
Q: How did the He/Con_2aR (FcγRIIa R [2]) turn out when B17 was run?
A: 106 % of control

B18: GpH7-B3 variant G237_19Q/GpL16-k0 (antibody, human IgG1, kappa)
heavy: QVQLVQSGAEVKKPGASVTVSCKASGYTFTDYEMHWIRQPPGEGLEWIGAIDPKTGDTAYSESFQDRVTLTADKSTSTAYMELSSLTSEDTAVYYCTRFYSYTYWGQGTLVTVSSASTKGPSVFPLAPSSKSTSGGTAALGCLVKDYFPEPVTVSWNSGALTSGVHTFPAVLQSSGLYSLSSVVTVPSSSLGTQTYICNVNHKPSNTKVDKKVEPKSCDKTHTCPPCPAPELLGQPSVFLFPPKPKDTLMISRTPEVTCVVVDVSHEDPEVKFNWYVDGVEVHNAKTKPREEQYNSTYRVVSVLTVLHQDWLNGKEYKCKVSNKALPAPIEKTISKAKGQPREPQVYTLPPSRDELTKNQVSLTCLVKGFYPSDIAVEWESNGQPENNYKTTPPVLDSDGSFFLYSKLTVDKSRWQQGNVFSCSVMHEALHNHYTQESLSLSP
light: B1 light
notes: also called Ho Ab G237_19Q
Q: With B18 as the binder, how does the Ho/Con_2aR (FcγRIIa R [1]) read?
A: 14.3 % of control

B19: GpH7-B3 variant E333_15Y/GpL16-k0 (antibody, human IgG1, kappa)
heavy: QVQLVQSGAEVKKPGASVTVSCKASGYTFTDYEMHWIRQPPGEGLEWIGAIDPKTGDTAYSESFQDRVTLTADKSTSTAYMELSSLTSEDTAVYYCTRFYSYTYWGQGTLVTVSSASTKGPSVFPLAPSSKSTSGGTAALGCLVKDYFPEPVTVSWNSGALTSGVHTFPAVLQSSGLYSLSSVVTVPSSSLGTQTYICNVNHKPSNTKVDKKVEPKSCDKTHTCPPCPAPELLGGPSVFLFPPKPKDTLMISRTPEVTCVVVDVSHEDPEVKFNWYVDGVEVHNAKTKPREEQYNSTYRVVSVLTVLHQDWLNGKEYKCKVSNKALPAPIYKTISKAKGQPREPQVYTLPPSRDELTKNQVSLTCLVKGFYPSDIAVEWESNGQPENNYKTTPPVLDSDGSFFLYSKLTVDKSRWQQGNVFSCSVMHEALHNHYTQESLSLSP
light: B1 light
notes: also called Ho Ab E333_15Y
Q: For B19, which Ho/Con_2aR (FcγRIIa R [1]) is on record?
A: 96.2 % of control

B20: GpH7-A5/GpH7-B3 variant P331_20W/GpL16-k0 (antibody, human IgG1, kappa)
heavy 1: not shown
heavy 2: not shown
light: B1 light
notes: also called He Ab P331_20W
Q: B20 was tested. Which He/Con_2aR (FcγRIIa R [2]) did it give?
A: 110 % of control

B21: GpH7-A5/GpH7-B3 variant N325_20W/GpL16-k0 (antibody, human IgG1, kappa)
heavy 1: not shown
heavy 2: not shown
light: B1 light
notes: also called He Ab N325_20W
Q: B21 was tested. Which He/Con_2aR (FcγRIIa R [2]) did it give?
A: 134 % of control

B22: GpH7-A5/GpH7-B3 variant P238_09D/GpL16-k0 (antibody, human IgG1, kappa)
heavy 1: not shown
heavy 2: not shown
light: B1 light
notes: also called He Ab P238_09D
Q: How did the He/Con_2aR (FcγRIIa R [2]) turn out when B22 was run?
A: 148 % of control

B23: GpH7-A5/GpH7-B3 variant N325_13S/GpL16-k0 (antibody, human IgG1, kappa)
heavy 1: not shown
heavy 2: not shown
light: B1 light
notes: also called He Ab N325_13S
Q: For B23, which He/Con_2aR (FcγRIIa R [2]) is on record?
A: 143 % of control

B24: GpH7-A5/GpH7-B3 variant P238_06M/GpL16-k0 (antibody, human IgG1, kappa)
heavy 1: not shown
heavy 2: not shown
light: B1 light
notes: also called He Ab P238_06M
Q: Which He/Con_2aR (FcγRIIa R [2]) does the source give for B24 here?
A: 139 % of control

B25: GpH7-A5/GpH7-B3 variant P331_16H/GpL16-k0 (antibody, human IgG1, kappa)
heavy 1: not shown
heavy 2: not shown
light: B1 light
notes: also called He Ab P331_16H
Q: Which He/Con_2aR (FcγRIIa R [2]) does the source give for B25 here?
A: 114 % of control

B26: GpH7-A5/GpH7-B3 variant N325_03V/GpL16-k0 (antibody, human IgG1, kappa)
heavy 1: not shown
heavy 2: not shown
light: B1 light
notes: also called He Ab N325_03V
Q: B26 was tested. Which He/Con_2aR (FcγRIIa R [2]) did it give?
A: 108 % of control

B27: GpH7-B3 variant A330_12R/GpL16-k0 (antibody, human IgG1, kappa)
heavy: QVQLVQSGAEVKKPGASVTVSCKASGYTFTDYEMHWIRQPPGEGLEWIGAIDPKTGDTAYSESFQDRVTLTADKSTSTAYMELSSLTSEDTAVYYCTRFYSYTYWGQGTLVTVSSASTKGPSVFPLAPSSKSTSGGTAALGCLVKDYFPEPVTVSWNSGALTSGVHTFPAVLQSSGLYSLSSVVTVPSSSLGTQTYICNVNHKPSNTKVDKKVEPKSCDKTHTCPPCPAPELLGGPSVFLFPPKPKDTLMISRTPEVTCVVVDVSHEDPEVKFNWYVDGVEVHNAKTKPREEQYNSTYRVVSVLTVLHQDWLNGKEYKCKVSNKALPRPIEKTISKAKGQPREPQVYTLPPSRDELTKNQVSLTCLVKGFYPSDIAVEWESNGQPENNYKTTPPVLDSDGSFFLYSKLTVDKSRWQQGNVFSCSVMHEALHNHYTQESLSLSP
light: B1 light
notes: also called Ho Ab A330_12R
Q: B27 was tested. Which Ho/Con_2aR (FcγRIIa R [1]) did it give?
A: 101 % of control

B28: GpH7-A5/GpH7-B3 variant N325_07I/GpL16-k0 (antibody, human IgG1, kappa)
heavy 1: not shown
heavy 2: not shown
light: B1 light
notes: also called He Ab N325_07I
Q: For B28, which He/Con_2aR (FcγRIIa R [2]) is on record?
A: 133 % of control
